Data reported in patent US20230192768A1 (published 2023).
Where no end group is shown, it is not given here.

Biological target: tumor necrosis factor alpha (TNF-α) protein
Test: ELISA: plate coated with 2 µg/ml TNF-α, FITC-labeled peptide titrated, HRP anti-FITC antibody, OD 410 nm, fitted in GraphPad Prism 5

tumor necrosis factor alpha (TNF-α) protein, sequence (chain, as listed by the source): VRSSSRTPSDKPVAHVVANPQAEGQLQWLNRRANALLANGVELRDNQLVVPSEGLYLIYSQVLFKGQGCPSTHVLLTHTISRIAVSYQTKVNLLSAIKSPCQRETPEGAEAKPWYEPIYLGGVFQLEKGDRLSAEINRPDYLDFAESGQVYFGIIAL

B1: peptide 632 (peptide)
peptide: HYIDFRW
modifications: also: FITC label, place not given here
notes: Chemically synthesized peptide; It was used in the ELISA as the FITC-labeled peptide; also called TNF-α antagonist peptide; antagonist peptide
  Kd: 138 nM
